Measured values from patent US10280218B2, “Antibodies binding to BMP4, and uses thereof” (ACADEMISCH MEDISCH CENTRUM, priority 2014, dated 2019).

T1: BMP5 (Homo sapiens, UniProt P22003)
T1 sequence (P22003 317-454): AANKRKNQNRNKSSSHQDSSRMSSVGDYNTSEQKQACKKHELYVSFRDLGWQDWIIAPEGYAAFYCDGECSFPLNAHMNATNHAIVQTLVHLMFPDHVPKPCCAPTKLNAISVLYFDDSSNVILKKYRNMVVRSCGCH

T2: BMP7 (Homo sapiens, UniProt P18075)
T2 sequence (P18075 293-431): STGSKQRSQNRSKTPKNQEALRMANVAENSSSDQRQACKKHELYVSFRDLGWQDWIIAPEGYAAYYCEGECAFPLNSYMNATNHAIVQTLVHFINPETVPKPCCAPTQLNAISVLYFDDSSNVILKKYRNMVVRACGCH

T3: BMP4 (human)
T3 chain: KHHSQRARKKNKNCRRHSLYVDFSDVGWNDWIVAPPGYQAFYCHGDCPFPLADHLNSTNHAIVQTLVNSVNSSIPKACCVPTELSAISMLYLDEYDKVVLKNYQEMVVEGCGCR

B1: hNoggin (protein)
chain: QHYLHIRPAPSDNLPLVDLIEHPDPIFDPKEKDLNETLLRSLLGGHYDPGFMATSPPEDRPGGGGGAAGGAEDLAELDQLLRQRPSGAMPSEIKGLEFSEGLAQGKKQRLSKKLRRKLQMWLWSQTFCPVLYAWNDLGSRFWPRYVKVGSCFSKRSCSVPEGMVCKPSKSVHLTVLRWRCQRRGGQRCGWIPIQYPIISECKCSC
B2: C8E7: E7 linked to C8, hetero-dimer VHH bihead (protein)
chain: EVQLVESGGGLVQAGGSLRLSCAASGRTFRINDMGWYRQAPGKSRDMVARITSGGNTNYADSVKGRFTISRDNAKNTVYLQMNSLKPEDTAVYYCNADGLRFDSTRYRPFDSWGQGTQVTVSSGGGGSGGGGSEVQLVESGGGLVQAGGSLRLSCAASGSIRGFVAMAWYRQAPGKQREWVATVTNGGTLYGDSVKGRFTGSRDNAKNTVYLQMNSLKPEDTAVYYCALRQIGASGYDYWGQGTQVTVSS

Tests used:
BMP5 = molecular target: T1, BMP5; assay: Surface plasmon resonance (SPR), BMPs injected over VHH-coated chip; format: binding; details: molecule coupled to chip; unit inferred
Procedure: To confirm their BMP specificities and to elucidate their binding affinities, our VHHs were subjected to surface plasmon resonance (SPR) analysis. In a first set of experiments, controls and VHHs (either as monomers or dimers) were coupled to SPR chips and the measurement of BMP affinities was obtained by injecting the different BMPs to the plate.
Serial dilutions (2.0-10 μg/ml) of purified VHHs were spotted on an amine-specific SensEye gold-film gel-type SPRchip (Ssens), using a Continuous Flow Microspotter (Wasatch Microfluidics, Salt Lake City, Utah, United States) as described (Lokate et al., 2007). BMP binding was analyzed on an IBIS MX96 (IBIS Technologies, Enschede, The Netherlands) instrument by performing injections with dilution series (0.05-2.0 μg/ml) of recombinant BMPs on the VHH-coated chip. In each injection, BMPs were injected and incubated for 8 min, followed by 15 min thorough washing with binding buffer (PBS+0.05% Tween20+0.05% sodium azide) to measure dissociation. Epitope binning was done by injecting VHH dilutions (2.0 μg/ml) over the chip, immediately after the dissociation step. Injections with blank binding buffer were used as reference. After each concatenated injection, the chip was regenerated with 10 mM glycine-HCl, pH 2.0. Experimental data were processed with SPRintX software (IBIS Technologies) and kinetic parameters were determined using Scrubber2 software (BioLogic Software, Campbell, ACT, Australia). Binding constants were obtained by global fitting to a one-site binding model.

BMP7 = molecular target: T2, BMP7; assay: BMP activity luciferase reporter assay (BRE-luciferase, ID1 promoter) in C2C12 cells; format: cell-based, mouse; details: 200 ng/ml hBMP7, 16 h; 500 ng/ml
Procedure: One of the most studied BMP target genes is the Inhibitor of Differentiation 1 (ID1). This is an immediate early gene that is activated by binding of the phosphorylated SMADs to its promoter region (López-Rovira et al., 2002). Thus, we employed the BMP-responsive C2C12 cells, which are stably transfected with the BRE-luciferase vector containing the BMP-Responsive-Element (the mouse ID1 promoter) cloned into the pGL3 luciferase vector (Zilberberg 2007). […] C2C12 cells were treated with the different BMPs with or without our VHHs or human Noggin at a concentration of 5 μg/ml. Luciferase activity was measured after 16 hours incubation. Most of the transcriptional data is in concordance with the results obtained with the phosphorylation of SMAD1/5/8.
C2C12 cells were plated in 96-well plates at 5×10^3 cells/well and cells were allowed to attach overnight. 100 μl of DMEM with 0.1% BSA were added in each well. VHH antibodies and human Fc-Noggin at the indicated concentrations were added at the same time. Wells with unstimulated cells were added as controls. Cells were treated in triplicate with the BMPs at the indicated concentrations for 16 hours. Luciferase activity was measured by adding 100 μl of luciferase substrate solution from the Bright-Glo™ Luciferase Assay System (Promega Benelux, Leiden, The Netherlands). After 3 minutes of incubation, luciferase activity was measured with Synergy HT Multi-Mode Microplate Reader (Biotek, Winooski, Vt., United States). Luciferase values were normalized to background activity (activity of wells with no cells) and represented as ratio to the activity of BMP-stimulated cells.
C2C12 cells were cultured in 96-well plates at 5×10^3 cells/well. […]

HT29 cells = assay: Chemosensitivity / cell viability (Presto Blue); format: cell-based, human
Procedure: We wanted to determine whether this effect could be attributable to BMP4 that is being secreted by the cancer cells, and if therefore, could be inhibited by our BMP4-specific VHHs. A panel of colorectal cancer cells was tested for the presence of active BMPs in their conditioned media (FIG. 28A). To that end, the C2C12 cells were cultured with supernatants from different cancer cell lines. When normalized for the BMPs present in normal fetal calf serum, we found a high variability in BRE-luciferase activity across cell lines. […] One of those cell lines, HT29, was used to test the effect of BMP4 inhibition in terms of proliferation. No effect was observed when cultured with the VHHs or Noggin alone (data not shown).
HT29 cells were plated in 96-well plates at a density of 10,000 cells per well. […] The VHHs or Noggin were added at the same time at a concentration of 500 ng/ml. Cell viability was measured by adding the Presto Blue Reagent (Invitrogen) for 2 hours at 37° C., after which absorbance was measured at […].

BMP4 = molecular target: T3, BMP4; assay: SPR
[1] = tested on: patient-derived SMAD4 deficient tumors; details: FIG. 6 of Lombardo et al.; cited from earlier work

| Molecule | Kd (BMP5) | inhibition of BMP-7 signals, comparison of inhibitors (BMP7) | chemosensitivity (cell viability) in combination with Carboplatin, 5′FU or Oxaliplatin (HT29 cells; 500 ng/ml, 48 hours) | effect on HT29 proliferation, alone (HT29 cells; without chemotherapy (data not shown)) | Kd (BMP4) | growth of SMAD4 deficient tumors after treatment [1] |
| --- | --- | --- | --- | --- | --- | --- |
| B1 | 68 nM | inhibited | not as effective as observed for C4C4 or C8C8 | No effect | 0.091 nM | generated tumors that grew faster instead of slower |
| B2 | 95 nM | – | – | – | – | – |
